Our source for the protein stability index values is the supplement of paper PMC10724198.

± gives the standard deviation of the averaged measurements.

The data set has as its system Saccharomyces cerevisiae. Briefly: protein stability index of tFT-peptide fusion (C-terminal peptide) (PSI (0-1 scale)); higher = more stable (slower turnover). As to conditions: temperature: 30 C. The protocol: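 MPS profiling in S. cerevisiae of the yeast C-terminome library: the last 12 aa of each annotated ORF are fused to the C-terminus of a sfGFP-mCherry timer, after a GGGS linker. Cells are FACS-sorted into 8 mCherry/sfGFP bins and deep-sequenced. PSI runs from 0 (unstable) to 1 (stable); wild type and das1Δ backgrounds, two technical replicates each.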

Setting [1] is: genetic background: das1 deletion.

Take NSKSNGNLFNSQ [NDD1 C-terminal 12 aa]: the protein stability index was determined as 0.72 ± 0.015 under setting [1] and 0.682 ± 0.015 (genetic background: wild type).
The matching figures for NTSLLFKKWEGS [CEM1 C-terminal 12 aa]: 0.707 ± 0.01 and 0.702 ± 0.04.
Consider NTSTYGQTVQPV [YLR456W C-terminal 12 aa], for which the protein stability index runs as follows: under setting [1], 0.6791 ± 0.00098; (genetic background: wild type) 0.678 ± 0.041.
The matching figures for NVSDLFQWQNAK [CAT8 C-terminal 12 aa]: 0.744 ± 0.017 and 0.683 ± 0.047.
The matching figures for NVTAVKALNECF [SKI3 C-terminal 12 aa]: 0.6887 ± 0.0054 and 0.652 ± 0.026.
For NWDQHNPRNSIH [IRC10 C-terminal 12 aa], the protein stability index is, setting by setting: under setting [1], 0.719 ± 0.013; (genetic background: wild type) 0.78 ± 0.067.
Consider NYTLTVENKNKV [SPC3 C-terminal 12 aa], for which the protein stability index runs as follows: under setting [1], 0.693 ± 0.051; (genetic background: wild type) 0.734 ± 0.03.
Take PAAIKQAIAANA [TRX1 C-terminal 12 aa]: the protein stability index came out at 0.45 ± 0.014 under setting [1] and 0.489 ± 0.013 (genetic background: wild type).
PAAVFTETLKHD [RPL4A C-terminal 12 aa]: the protein stability index is, setting by setting: under setting [1], 0.7 ± 0.016; (genetic background: wild type) 0.7 ± 0.022.
With PAETTDEGWTMI [ATG26 C-terminal 12 aa], the protein stability index reads like this: under setting [1], 0.704 ± 0.023; (genetic background: wild type) 0.68 ± 0.014.
As to PDLPSTIKPLAD [BCH2 C-terminal 12 aa], the protein stability index under setting [1] was 0.693 ± 0.018 and the protein stability index (genetic background: wild type) was found to be 0.693 ± 0.0094.
The matching figures for PIALTMFQRWAS [UPA1 C-terminal 12 aa]: 0.688 ± 0.01 and 0.498 ± 0.038.
The matching figures for “PIRRQFYLNSRQ [YML047W-A C-terminal 12 aa]”: 0.701 ± 0.011 and 0.691 ± 0.017.
The matching figures for PISPIGNAGSQI [MIN10 C-terminal 12 aa]: 0.696 ± 0.00098 and 0.6629 ± 0.0022.
For the sequence PISSKYTDGKKR [YPL205C C-terminal 12 aa], the protein stability index is, setting by setting: under setting [1], 0.686 ± 0.012; (genetic background: wild type) 0.695 ± 0.013.
In the case of PLQRNSNVSHHL [MPH2 C-terminal 12 aa], the protein stability index was found to be 0.69243 ± 0.00056 under setting [1] and 0.7038 ± 0.0037 (genetic background: wild type).
As for PMGDIPVHLFKR [ACF4 C-terminal 12 aa], the protein stability index is, setting by setting: under setting [1], 0.709 ± 0.013; (genetic background: wild type) 0.729 ± 0.014.
With PNKDVEQGNDMV [AKR1 C-terminal 12 aa], the protein stability index runs as follows: under setting [1], 0.6883 ± 0.00087; (genetic background: wild type) 0.695 ± 0.05.
Consider PQDKPAGQSIWL [HRR25 C-terminal 12 aa], for which the protein stability index runs as follows: under setting [1], 0.6795 ± 0.00075; (genetic background: wild type) 0.6948 ± 0.0048.
The matching figures for PREGRLDKTPTY [KAR9 C-terminal 12 aa]: 0.706 ± 0.008 and 0.704 ± 0.036.
The matching figures for PRPACGVIGLTN [SOD1 C-terminal 12 aa]: 0.713 ± 0.03 and 0.726 ± 0.008.
Regarding PSRVALVLALKE [GLC3 C-terminal 12 aa], the protein stability index stood at 0.6875 ± 0.0016 under setting [1] and 0.747 ± 0.029 (genetic background: wild type).
Regarding PVIYGLPIKFVS [ESP1 C-terminal 12 aa], the protein stability index reads like this: under setting [1], 0.7014 ± 0.0052; (genetic background: wild type) 0.389 ± 0.0063.
In turn, QAERQLYDAYFH [YFL064C C-terminal 12 aa] yielded a protein stability index under setting [1] of 0.732 ± 0.023 and a protein stability index (genetic background: wild type) of 0.733 ± 0.038.
The matching figures for QASSEKKWYKFW [COX20 C-terminal 12 aa]: 0.755 ± 0.018 and 0.6753 ± 0.0053.
As for QGILMAKQYHIK [YSA1 C-terminal 12 aa], the protein stability index by setting is: under setting [1], 0.714 ± 0.018; (genetic background: wild type) 0.702 ± 0.02.
Sequence QGKTFYETVAKF [PST2 C-terminal 12 aa] registered a protein stability index under setting [1] of 0.77 ± 0.03 and a protein stability index (genetic background: wild type) of 0.776 ± 0.017.
The matching figures for QHQQENPNLIDI [YAP1802 C-terminal 12 aa]: 0.707 ± 0.024 and 0.734 ± 0.063.
Take QIDDVNILKKNP [LIP2 C-terminal 12 aa]: the protein stability index came out at 0.709 ± 0.009 under setting [1] and 0.702 ± 0.053 (genetic background: wild type).
The matching figures for QIPPEVQKWYYV [PPA2 C-terminal 12 aa]: 0.71952 ± 0.00036 and 0.593 ± 0.02.
QLEKEGEDGLDS [IES4 C-terminal 12 aa]: the protein stability index amounted to 0.6881 ± 0.005 under setting [1] and 0.666 ± 0.043 (genetic background: wild type).
Consider QLITLLSKHLRT [HMS2 C-terminal 12 aa], for which the protein stability index reads like this: under setting [1], 0.693 ± 0.017; (genetic background: wild type) 0.676 ± 0.042.
The matching figures for QLQLIMFGKKFK [AAC1 C-terminal 12 aa]: 0.698 ± 0.0099 and 0.717 ± 0.036.
Consider QPPAAAEGEAPK [BMH1 C-terminal 12 aa], for which the protein stability index reads like this: under setting [1], 0.712 ± 0.024; (genetic background: wild type) 0.715 ± 0.026.
Take QQQKVLAATLEK [HVG1 C-terminal 12 aa]: the protein stability index runs as follows: under setting [1], 0.73 ± 0.0088; (genetic background: wild type) 0.656 ± 0.012.
The matching figures for QRCCECASGNGC [YDR442W C-terminal 12 aa]: 0.6843 ± 0.0013 and 0.668 ± 0.035.
For the sequence “QRTLVYKHKNDC [YLR285C-A C-terminal 12 aa]”, the protein stability index by setting is: under setting [1], 0.686 ± 0.0091; (genetic background: wild type) 0.657 ± 0.0068.
The matching figures for QRTQAICIDKKW [YJL135W C-terminal 12 aa]: 0.697 ± 0.014 and 0.6986 ± 0.0032.
The matching figures for QVRDILDKLNII [PRB1 C-terminal 12 aa]: 0.703 ± 0.015 and 0.6877 ± 0.0033.
The matching figures for “RACPLRPKSLIA [YMR315W-A C-terminal 12 aa]”: 0.655 ± 0.0078 and 0.667 ± 0.032.
RAEIVIEEAGEL [CPR3 C-terminal 12 aa]: the protein stability index worked out at 0.683 ± 0.011 under setting [1] and 0.6789 ± 0.0032 (genetic background: wild type).
RDLHVEHDNEFY [RPD3 C-terminal 12 aa] had a protein stability index under setting [1] of 0.718 ± 0.019 and a protein stability index (genetic background: wild type) of 0.662 ± 0.074.
Take RDLNKLRSFQNF [YFL012W C-terminal 12 aa]: the protein stability index is, setting by setting: under setting [1], 0.724 ± 0.024; (genetic background: wild type) 0.4914 ± 0.0021.
The matching figures for RDREMVRELFRR [RSO55 C-terminal 12 aa]: 0.711 ± 0.017 and 0.692 ± 0.021.
The matching figures for RFREEAYYSQFR [TCD2 C-terminal 12 aa]: 0.716 ± 0.013 and 0.672 ± 0.037.
On to RHEGQRSKNSVK [GYP7 C-terminal 12 aa], for which the protein stability index under setting [1] amounted to 0.686 ± 0.015 and the protein stability index (genetic background: wild type) is 0.689 ± 0.019.
The matching figures for RIEKYSDDVIPK [RIM13 C-terminal 12 aa]: 0.695 ± 0.018 and 0.722 ± 0.0089.
Regarding RKEIRKQKRATF [MRPS28 C-terminal 12 aa], the protein stability index runs as follows: under setting [1], 0.709 ± 0.059; (genetic background: wild type) 0.734 ± 0.028.
Take RKEKDPETYLDK [ERG8 C-terminal 12 aa]: the protein stability index under setting [1] is 0.691 ± 0.023 and the protein stability index (genetic background: wild type) amounted to 0.684 ± 0.01.
Regarding RKNGYDIMTLHE [CLB1 C-terminal 12 aa], the protein stability index is, setting by setting: under setting [1], 0.719 ± 0.045; (genetic background: wild type) 0.666 ± 0.027.
As to RLGLDWKPDGMS [STD1 C-terminal 12 aa], the protein stability index by setting is: under setting [1], 0.725 ± 0.029; (genetic background: wild type) 0.6963 ± 0.0059.
With RLIKHINDIFWK [GPI13 C-terminal 12 aa], the protein stability index amounted to 0.717 ± 0.077 under setting [1] and 0.723 ± 0.092 (genetic background: wild type).
The matching figures for RLKDGSVTCIKS [HMG1 C-terminal 12 aa]: 0.7299 ± 0.0059 and 0.7 ± 0.021.
As for RNKKKRFSWVGY [LAA2 C-terminal 12 aa], the protein stability index by setting is: under setting [1], 0.699 ± 0.066; (genetic background: wild type) 0.661 ± 0.044.
RNYQKKGNKGCI [YCL076W C-terminal 12 aa] gave a protein stability index under setting [1] of 0.687 ± 0.024 and a protein stability index (genetic background: wild type) of 0.679 ± 0.034.
In turn, “RPIFPFLIVLIS [YBR196C-A C-terminal 12 aa]” gave a protein stability index under setting [1] of 0.16 ± 0.013 and a protein stability index (genetic background: wild type) of 0.1088 ± 0.00092.
The matching figures for RPPRTRIPRLRR [YKR047W C-terminal 12 aa]: 0.7572 ± 0.0045 and 0.708 ± 0.036.
The matching figures for RPSTNDPTSCCS [YPT52 C-terminal 12 aa]: 0.697 ± 0.025 and 0.705 ± 0.03.
The matching figures for RQRQLKSPQNVL [TYW3 C-terminal 12 aa]: 0.714 ± 0.017 and 0.696 ± 0.046.
With RRLDDLETTMRM [SFH1 C-terminal 12 aa], the protein stability index is, setting by setting: under setting [1], 0.66 ± 0.015; (genetic background: wild type) 0.662 ± 0.029.
The matching figures for “RRLKIQLCCISK [YHR180C-B C-terminal 12 aa]”: 0.658 ± 0.019 and 0.6544 ± 0.004.
As for RRQSPPGYYVIR [YLR311C C-terminal 12 aa], the protein stability index was 0.747 ± 0.0064 under setting [1] and 0.708 ± 0.027 (genetic background: wild type).
With RRSQLREHACVD [LDB7 C-terminal 12 aa], the protein stability index is, setting by setting: under setting [1], 0.707 ± 0.013; (genetic background: wild type) 0.7096 ± 0.0049.
As to RRTQAQSRSRKA [PKR1 C-terminal 12 aa], the protein stability index runs as follows: under setting [1], 0.675 ± 0.0088; (genetic background: wild type) 0.706 ± 0.037.
As for “RSIIKLPVTKGL [YBL008W-A C-terminal 12 aa]”, the protein stability index is, setting by setting: under setting [1], 0.6946 ± 0.0058; (genetic background: wild type) 0.6596 ± 0.0024.
RSPKGNSIIEEI [BTN2 C-terminal 12 aa]: the protein stability index is 0.695 ± 0.026 under setting [1] and 0.655 ± 0.02 (genetic background: wild type).
As for RSRNKALVSVST [VPS63 C-terminal 12 aa], the protein stability index by setting is: under setting [1], 0.6496 ± 0.0045; (genetic background: wild type) 0.667 ± 0.049.
